Drawing on CN105483091A, this text covers ELISA滴度 (dilution (1:x)) for 1 molecule.

Bounds are passed on as bounds.

Test [1] concerns the target T1, 原核表达的重组人Calcitonin蛋白 (PET28a-Calcitonin, 大肠杆菌BL21表达, Ni-NTA纯化) (human) (UniProt P01258).
T1 sequence (looked up): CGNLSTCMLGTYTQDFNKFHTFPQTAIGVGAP
Briefly: ELISA titer, as told in the summary of results. In general terms: ELISA stands for enzyme-linked immunosorbent assay.

Test [2] has as its target T1, 原核表达的重组人Calcitonin蛋白 (PET28a-Calcitonin, 大肠杆菌BL21表达, Ni-NTA纯化) (human). Briefly: direct ELISA, purified antibody diluted 1:200 to 1:12800 on plates coated with purified Calcitonin protein (10 μg/ml), goat anti-mouse IgG-HRP, OD450.

B1: 小鼠抗人Calcitonin单克隆抗体 (杂交瘤细胞株7D5, CGMCC No.6919 产生) (antibody, part only; not given: light chain variable region, V domains shown, part only)
VH: LFCQTAGVHSEVQLQQSGPELVKPGTSVKMSCKASGYTFTSYVIHWVKQKPGQGLEWIGYINPYNVGTKYNEKFRDKATLTSDKSSNTAYMELSSLTSEDFAVYYCVRS
As to B1, the results for the ELISA滴度 (dilution (1:x)) in test [1] and in test [2] were over 100000 and over 10000, respectively.
